Test results published in patent publication US12186374B2 (Sanofi-Aventis Deutschland GmbH, priority 2014, dated 2025).

Assays:
patients with T2DM [1] = test: Treatment-emergent adverse events incl. serious, fatal, leading to discontinuation (Example 3); conditions: Safety population
patients with T2DM [2] = test: ALT increase reported on AE form (Example 3); conditions: on-treatment period
[3] = system: patients with Type 2 diabetes mellitus (T2DM); test: ALT increase reported on AE form (Example 2); conditions: on-treatment period

## Gly(A21)-Arg(B31)-Arg(B32)-human insulin [Insulin Glargine]
Patients with T2DM [1]; PT
  Number of patients experiencing serious TEAE(s): Cardiac failure congestive: 1
  Number of patients experiencing serious TEAE(s): Cardiopulmonary failure: 1
  Number of patients experiencing serious TEAE(s): Chest discomfort: 1
  Number of patients experiencing serious TEAE(s): Cholecystitis acute: 1
  Number of patients experiencing serious TEAE(s): Cholecystitis chronic: 0
  Number of patients experiencing serious TEAE(s): Gallbladder cancer: 1
  Number of patients experiencing serious TEAE(s): Glaucoma: 1
  Number of patients experiencing serious TEAE(s): Hypertension: 1
  Number of patients experiencing serious TEAE(s): Hypoglycaemia: 1
  Number of patients experiencing serious TEAE(s): Hypoglycaemic seizure: 0
  Number of patients experiencing serious TEAE(s): Hypoglycaemic unconsciousness: 0
  Number of patients experiencing serious TEAE(s): Intervertebral disc protrusion: 1
  Number of patients experiencing serious TEAE(s): Kaposi’s sarcoma: 1
  Number of patients experiencing serious TEAE(s): Meniscus injury: 1
  Number of patients experiencing serious TEAE(s): Myocardial infarction: 0
  Number of patients experiencing serious TEAE(s): Non-cardiac chest pain: 2
  Number of patients experiencing serious TEAE(s): Osteoarthritis: 0
  Number of patients experiencing serious TEAE(s): Osteomyelitis: 1
  Number of patients experiencing serious TEAE(s): Pneumonia: 1
  Number of patients experiencing serious TEAE(s): Renal impairment: 1
  Number of patients experiencing serious TEAE(s): Scar: 0
  Number of patients experiencing serious TEAE(s): Squamous cell carcinoma of the tongue: 0
  Number of patients experiencing serious TEAE(s): Subdural haematoma: 0
  Number of patients experiencing serious TEAE(s): Supraventricular tachycardia: 0
  Number of patients experiencing serious TEAE(s): Tendonitis: 0
  Number of patients experiencing serious TEAE(s): Wound infection: 1
Patients with T2DM [1]; SOC
  % of patients experiencing TEAE(s) leading to permanent treatment discontinuation: Cardiac disorders: (0.3%)
  % of patients experiencing TEAE(s) leading to permanent treatment discontinuation: Neoplasms benign, malignant and unspecified (incl cysts and polyps): (0.3%)
  % of patients experiencing TEAE(s) leading to permanent treatment discontinuation: Pregnancy, puerperium and perinatal conditions: (0.3%)
  % of patients experiencing serious TEAE(s): Cardiac disorders: (0.5%)
  % of patients experiencing serious TEAE(s): Eye disorders: (0.3%)
  % of patients experiencing serious TEAE(s): General disorders and administration site conditions: (0.8%)
  % of patients experiencing serious TEAE(s): Hepatobiliary disorders: (0.3%)
  % of patients experiencing serious TEAE(s): Infections and infestations: (0.8%)
  % of patients experiencing serious TEAE(s): Injury, poisoning and procedural complications: (0.3%)
  % of patients experiencing serious TEAE(s): Metabolism and nutrition disorders: (0.3%)
  % of patients experiencing serious TEAE(s): Musculoskeletal and connective tissue disorders: (0.3%)
  % of patients experiencing serious TEAE(s): Neoplasms benign, malignant and unspecified (incl cysts and polyps): (0.5%)
  % of patients experiencing serious TEAE(s): Renal and urinary disorders: (0.3%)
  % of patients experiencing serious TEAE(s): Reproductive system and breast disorders: (0.3%)
  % of patients experiencing serious TEAE(s): Vascular disorders: (0.3%)
  Number of patients experiencing TEAE(s) leading to permanent treatment discontinuation: Cardiac disorders: 1
  Number of patients experiencing TEAE(s) leading to permanent treatment discontinuation: Gastrointestinal disorders: 0
  Number of patients experiencing TEAE(s) leading to permanent treatment discontinuation: Infections and infestations: 0
  Number of patients experiencing TEAE(s) leading to permanent treatment discontinuation: Investigations: 0
  Number of patients experiencing TEAE(s) leading to permanent treatment discontinuation: Neoplasms benign, malignant and unspecified (incl cysts and polyps): 1
  Number of patients experiencing TEAE(s) leading to permanent treatment discontinuation: Nervous system disorders: 0
  Number of patients experiencing TEAE(s) leading to permanent treatment discontinuation: Pregnancy, puerperium and perinatal conditions: 1
  Number of patients experiencing serious TEAE(s): Cardiac disorders: 2
  Number of patients experiencing serious TEAE(s): Eye disorders: 1
  Number of patients experiencing serious TEAE(s): General disorders and administration site conditions: 3
  Number of patients experiencing serious TEAE(s): Hepatobiliary disorders: 1
  Number of patients experiencing serious TEAE(s): Infections and infestations: 3
  Number of patients experiencing serious TEAE(s): Injury, poisoning and procedural complications: 1
  Number of patients experiencing serious TEAE(s): Metabolism and nutrition disorders: 1
  Number of patients experiencing serious TEAE(s): Musculoskeletal and connective tissue disorders: 1
  Number of patients experiencing serious TEAE(s): Neoplasms benign, malignant and unspecified (incl cysts and polyps): 2
  Number of patients experiencing serious TEAE(s): Nervous system disorders: 0
  Number of patients experiencing serious TEAE(s): Renal and urinary disorders: 1
  Number of patients experiencing serious TEAE(s): Reproductive system and breast disorders: 1
  Number of patients experiencing serious TEAE(s): Vascular disorders: 1
Patients with T2DM [1]
  % of patients experiencing TEAE(s) leading to permanent treatment discontinuation: Any TEAE leading to permanent treatment discontinuation: (0.8%)
  % of patients experiencing serious TEAE(s): Any serious TEAE: (4.9%)
  Number of patients experiencing TEAE(s) leading to permanent treatment discontinuation: Any TEAE leading to permanent treatment discontinuation: 3
  Number of patients experiencing serious TEAE(s): Any serious TEAE: 18
  Patients with any TEAE, number: 191 n
  Patients with any TEAE, percentage: (52.3%)
Patients with T2DM [2]; Example 3
  Patients with AE of ALT increase: 2 patients
Patients with T2DM [2]; PT, Safety population
  % of patients with events reported on the AE form for ALT increase: Alanine aminotransferase increased: 0.5%
  Number of patients with events reported on the AE form for ALT increase: Alanine aminotransferase increased: 2
  Number of patients with events reported on the AE form for ALT increase: Hepatic enzyme increased: 0
Patients with T2DM [2]; Safety population
  % of patients with events reported on the AE form for ALT increase: Any: 0.5%
  Number of patients with events reported on the AE form for ALT increase: Any: 2
[3]; Example 2
  Patients with AE of ALT increase: 2 patients
[3]; Safety population
  Events reported on the AE form for ALT increase: Alanine aminotransferase increased: 2 (0.4%) n (%)
  Patients with events reported on the AE form for ALT increase: Any: 2 (0.4%) n (%)
